Source: patent US20240368668A1, “SUBSTRATES AND BIOMARKERS OF ADAMTS7” (The Broad Institute, Inc., priority 2021, published 2024)
Square brackets hold non-standard residues; d marks the D form. Ends that are not written are not given here.

Biological target: T1, mouse ADAMTS7 (Mus musculus, UniProt Q68SA9)
T1 construct: Full-length mouse Adamts7 1-1857 (Uniprot Q68SA9, WT or E373Q catalytic mutant); expressed in transfected cells; host or cells: Human Coronary Artery Smooth Muscle Cells (HCA-SMC, Lonza), adenovirus 50 MOI
T1 sequence (Q68SA9 221-1657): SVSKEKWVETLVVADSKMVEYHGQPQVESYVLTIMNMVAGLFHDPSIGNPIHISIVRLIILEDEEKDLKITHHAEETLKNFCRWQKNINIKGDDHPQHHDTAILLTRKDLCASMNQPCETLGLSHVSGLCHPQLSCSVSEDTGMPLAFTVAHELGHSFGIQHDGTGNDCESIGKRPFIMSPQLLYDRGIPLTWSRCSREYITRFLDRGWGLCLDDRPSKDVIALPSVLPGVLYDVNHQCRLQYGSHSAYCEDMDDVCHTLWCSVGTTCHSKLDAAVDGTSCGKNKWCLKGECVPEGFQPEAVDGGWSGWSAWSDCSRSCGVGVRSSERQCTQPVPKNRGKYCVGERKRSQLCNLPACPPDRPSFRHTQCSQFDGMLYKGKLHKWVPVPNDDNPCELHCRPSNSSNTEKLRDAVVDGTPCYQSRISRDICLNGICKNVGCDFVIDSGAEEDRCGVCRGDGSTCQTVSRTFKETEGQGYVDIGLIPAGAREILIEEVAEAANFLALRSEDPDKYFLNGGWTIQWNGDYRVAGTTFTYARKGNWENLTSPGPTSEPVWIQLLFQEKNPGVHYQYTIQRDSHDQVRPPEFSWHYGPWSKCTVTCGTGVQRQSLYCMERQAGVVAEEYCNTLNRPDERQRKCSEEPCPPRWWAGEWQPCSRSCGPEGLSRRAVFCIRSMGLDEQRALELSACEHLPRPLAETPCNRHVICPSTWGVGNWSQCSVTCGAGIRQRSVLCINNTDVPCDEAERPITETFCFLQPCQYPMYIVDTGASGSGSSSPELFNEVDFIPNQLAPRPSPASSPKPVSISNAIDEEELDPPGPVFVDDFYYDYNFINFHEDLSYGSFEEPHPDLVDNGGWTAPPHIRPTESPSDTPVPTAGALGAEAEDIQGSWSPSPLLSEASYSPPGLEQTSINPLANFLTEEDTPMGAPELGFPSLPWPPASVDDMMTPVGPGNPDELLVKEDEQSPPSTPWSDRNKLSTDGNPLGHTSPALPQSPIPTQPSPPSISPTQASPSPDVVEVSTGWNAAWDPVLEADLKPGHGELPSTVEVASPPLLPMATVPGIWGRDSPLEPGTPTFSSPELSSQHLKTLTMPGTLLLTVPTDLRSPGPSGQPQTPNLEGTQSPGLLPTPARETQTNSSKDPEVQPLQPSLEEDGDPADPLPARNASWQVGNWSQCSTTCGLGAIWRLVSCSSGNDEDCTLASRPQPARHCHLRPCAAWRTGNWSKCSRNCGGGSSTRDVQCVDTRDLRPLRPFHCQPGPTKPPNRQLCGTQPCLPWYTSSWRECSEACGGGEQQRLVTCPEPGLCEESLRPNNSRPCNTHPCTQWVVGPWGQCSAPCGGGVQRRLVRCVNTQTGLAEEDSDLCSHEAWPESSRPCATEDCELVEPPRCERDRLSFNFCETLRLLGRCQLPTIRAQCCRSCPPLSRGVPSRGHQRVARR
Assay: TMT10 TAILS N-terminomics, SMC2 experiment (process replicates, trypsin/AspN digest)
Assay type: cell-based
Settings: SMC2_TAILS HC
Excerpt: ADAMTS7 Expression, Cell Culture and Preparation of the Secreted Proteins—Full-length mouse Adamts7 1-1857 (Uniprot Q68SA9, WT or E373Q catalytic mutant) with a carboxyl terminal 3xFLAG tag was used to generate custom adenoviruses as previously described. Adeno-CMV-Luciferase (Ad-Luc) from Vector Biolabs was used as a negative control. Human Coronary Artery Smooth Muscle Cells (HCA-SMC) were obtained from Lonza and expanded in Lonza SmGM-2 media in 15 cm tissue culture plates. Twenty-four hours before media collection, near confluent plates were transduced with 50 MOI adenovirus and switched to Lonza Basal SM media with volumes of 20 ml per 15 cm plate. Expression of the Flag tagged ADAMTS7 was confirmed from the media using western blot and detected using the anti-Flag M2-HRP antibody (Sigma, A8592). Collected media was processed by adding protease inhibitors (1 mM EDTA and 1 mM PMSF) and clarified by 500 g×5 min spin at 4 C to pellet cell debris. Cell media supernatants were then passed through a 0.22 um filter and kept chilled. Processed media was then concentrated 50-100× using 3 kDa Centricon Plus-70 filter unit, spun at 3,500 g×60 min at 4 C. Approximately 10% of the processed, concentrated media was set aside for total secretome proteolytic analysis. The remaining 90% of the processed, concentrated media was buffer exchanged into 50 mM HEPES pH 8.0, 150 mM NaCl (2×50 ml) using the 3 kDa Centricon Plus-70 filter unit and concentrated to >2 mg/ml to serve as input for the TAILS experiment. Secretome and TAILS input samples were stored at −80° C.
For the first experiment, referred to as SMC1, 120 ml of media from 6×15 cm dishes was pooled from each condition (Luc, WT, EQ) and processed to produce three separate inputs for the TAILS experiment. Luc, WT and EQ inputs from the SMC1 experiment were each divided into triplicate 400 ug samples to generate technical replicate TAILS data. For the second experiment, referred to as SMC2, media was processed separately in triplicate for each condition (Luc1, Luc2, Luc3, WT1, WT2, WT3, EQ1, EQ2, EQ3) using 60 ml of media from 3×15 cm dishes for each process replicate. Inputs from the SMC2 experiment used process replicates of 300 ug each to generate TAILS data. The third experiment used input from cultured Human umbilical vein endothelial cells (HUVEC) from Lifeline Cell Technology grown in VascuLife Media and transduced in Lifeline Basal EC (+bFGF2 10 ng/ml). The HUVEC experiment used the same strategy as the SMC2 experiment, with 40 ml of media from 2×15 cm dishes for each process replicate and used 200 ug each to generate TAILS data. Inputs for process replicate experiments were restricted to the lowest concentration from the 9 parallel samples for SMC2 or HUVEC.
TMT10 isotopic labeling and negative selection of non-labeled peptides-Sample preparation was performed based on the TAILS protocol from the Overall lab with some modifications. From a single experiment, nine parallel protein samples in 50 mM HEPES pH 8.0, 150 mM NaCl were separately denatured with guanidinium chloride (Sigma, G4505) to reach a final concentration of 2.5M guanidinium chloride and 250 mM HEPES and incubated at 65° C. for 15 min. Reduction was achieved through addition of tris(2-carboxylethyl) phosphine (TCEP) at a final concentration of […] and incubated at 65° C. for 45 min. Alkylation reaction was performed with addition of iodoacetamide (IAA, Sigma, A3221) to a final concentration of 10 mM IAA for 15 min at room temperature in the dark. Following denaturation, reduction and alkylation steps, ten percent of each of the nine parallel protein samples was removed and combined to serve as a pooled reference. Isobaric tags were added to free amine groups using the TMT10plex Isobaric Mass Tagging Kit (ThermoFisher, 90113) with TMT channels randomly assigned to the nine samples and TMT 131 assigned to the pooled reference. […]

[1] = log fold change of N-terminal peptide, Ad-mADAMTS7 WT over Luc

Substance | logFC.mWT.over.Luc (log fold change, mWT over Luc) | logFC.mWT.over.Luc [1]
EFEMP1_124 (AVAGPEMQTGR; listed as Homo sapiens) | 2.81 | 
FBLN2_259 (ALGPPAPVQAKAR; listed as Homo sapiens) | 1.61 | 
FLNA_1285 (LTQTGGPHVKAR; listed as Homo sapiens) | 4.37 | 
FN1_36 (MVQPQSPVAVSQSKPGCYDNGKHYQINQQWER; listed as Homo sapiens) | 3.59 | 
FN1_40 (QSPVAVSQSKPGCYDNGKHYQINQQWER; listed as Homo sapiens) | 2.60 | 
FN1_1143 (LTPGVEYVYTIQVLR; listed as Homo sapiens) | 2.31 | 
FN1_1656 (SSSPVTGYR; listed as Homo sapiens) | 1.20 | 
HSPG2_275 (LLPGSVR; listed as Homo sapiens) | 1.74 | 
HSPG2_2331 (ANLAYPAGSTQPIR; listed as Homo sapiens) | 1.72 | 
HSPG2_2333 (LAYPAGSTQPIR; listed as Homo sapiens) | 1.19 | 
IGFBP3_31 (SAGLGPVVR; listed as Homo sapiens) | 2.12 | 
IGFBP3_32 (AGLGPVVR; listed as Homo sapiens) | 4.68 | 
LOXL2_37 (FQQPAPEYHQPQAPANVAKIQLR; listed as Homo sapiens) |  | 3.27
LOXL2_38 ([code q]QPAPEYHQPQAPANVAKIQLR; not fully specified; listed as Homo sapiens) |  | 1.74
LOX_58 (LSLGSQYQPQR; listed as Homo sapiens) | 1.68 | 
LOX_124 (WFQAGYSTSR; listed as Homo sapiens) | 3.35 | 
LOX_126 (QAGYSTSR; listed as Homo sapiens) | 2.77 | 

Other lines, results leading:

logFC.mWT.over.Luc (log fold change, mWT over Luc) | logFC.mWT.over.Luc [1] | Substance
3.21 |  | AEBP1_37 (FLEGFLSELEPEPR; listed as Homo sapiens)
2.08 |  | CCDC80_66 (LEEPNLQPLQR; listed as Homo sapiens)
1.43 |  | EFEMP1_125 (VAGPEMQTGR; listed as Homo sapiens)
1.98 |  | FBLN2_260 (LGPPAPVQAKAR; listed as Homo sapiens)
3.33 |  | FBN1_29 (LEAGNVKETR; listed as Homo sapiens)
4.64 |  | FBN1_53 (LKGPNVCGSR; listed as Homo sapiens)
1.91 |  | GSN_413 (HIANVER; listed as Homo sapiens)
2.53 |  | IGFBP7_101 (AAGGPGVSGVCVCKSR; listed as Homo sapiens)
 | 1.56 | LOXL1_219 (VASAGVIYPYQPR; listed as Homo sapiens)
1.37 |  | LOX_123 (HWFQAGYSTSR; listed as Homo sapiens)
 | 6.60 | LTBP1_393 (LTATNFR; listed as Homo sapiens)
 | 1.82 | LTBP1_540 (HQQVIPHVYPVAAKTQLGR; listed as Homo sapiens)
